The target in this assay is NfRedAm, reductive aminase from Neosartorya fumigata (Neosartorya fumigata). The assay is described as follows: SEC-MALS. In general terms: Size exclusion chromatography separates by hydrodynamic size, large species first.

Substance “NfRedAm, reductive aminase from Neosartorya fumigata (enzyme)” registered a stoichiometry N of 2.

What is called stoichiometry N is a count of units in the complex or per binding partner.

(Values after PMC8159254.)
